Consider 1 substance from patent US20200223906A1.

Assay [1] addresses RSV F protein of subtype A (strain A2) on recombinant mKate-RSV (respiratory syncytial virus subtype A (strain A2)) (UniProt P03420). Nature of the assay: cell-based or functional assay.
Assay [2] has as its target human metapneumovirus (HMPV) F protein on GFP-expressing hMPV recombinant virus (NL/1/00, A1 sublineage) (human metapneumovirus). Nature of the assay: cell-based or functional assay.

For MPE8 (antibody), the RSV-A2 IC50 in assay [1] was 0.04 µg/mL. Also, the HMPV-A1 IC50 in assay [2] was found to be 0.07 µg/mL.
